Source: paper PMC9482650, “Quantitative fragmentomics allow affinity mapping of interactomes” (Nature Communications, 2022)

T1: HTRA3, P83110
T1 sequence (P83110 354-453, limits assumed, looked up): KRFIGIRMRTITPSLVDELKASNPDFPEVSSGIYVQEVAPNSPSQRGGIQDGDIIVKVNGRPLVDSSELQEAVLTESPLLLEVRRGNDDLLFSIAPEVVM

T2: LRRC7, Q96NW7
T2 sequence (Q96NW7 1440-1537, limits assumed, looked up): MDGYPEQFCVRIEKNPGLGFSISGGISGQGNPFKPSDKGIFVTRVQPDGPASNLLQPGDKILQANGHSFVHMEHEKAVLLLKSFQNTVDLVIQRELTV

T3: NHERF3_3, Q5T2W1
T3 sequence (Q5T2W1 238-333, limits assumed, looked up): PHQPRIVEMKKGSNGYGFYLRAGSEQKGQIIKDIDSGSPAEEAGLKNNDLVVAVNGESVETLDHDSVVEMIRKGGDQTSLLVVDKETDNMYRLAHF

T4: SNTA1, Q13424
T4 sequence (Q13424 82-180, limits assumed, looked up): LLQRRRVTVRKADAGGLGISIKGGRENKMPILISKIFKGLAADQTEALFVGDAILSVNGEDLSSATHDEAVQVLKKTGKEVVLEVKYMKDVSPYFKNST

T5: RHPN1, Q8TCX5
T5 sequence (Q8TCX5 508-602, limits assumed, looked up): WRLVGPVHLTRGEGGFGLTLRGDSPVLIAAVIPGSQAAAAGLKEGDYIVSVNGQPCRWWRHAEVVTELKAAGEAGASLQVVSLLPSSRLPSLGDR

T6: GRIP1_7, Q9Y3R0
T6 sequence (Q9Y3R0 999-1096, limits assumed, looked up): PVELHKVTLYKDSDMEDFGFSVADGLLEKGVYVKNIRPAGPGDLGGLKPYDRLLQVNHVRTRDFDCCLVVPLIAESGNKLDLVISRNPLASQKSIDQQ

T7: CARD11, Q9BXL7
T7 sequence (Q9BXL7 662-765, limits assumed, looked up): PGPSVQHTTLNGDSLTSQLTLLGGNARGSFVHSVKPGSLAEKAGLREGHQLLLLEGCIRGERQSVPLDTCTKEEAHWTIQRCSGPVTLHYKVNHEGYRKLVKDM

T8: SNTB1, Q13884
T8 sequence (Q13884 107-205, limits assumed, looked up): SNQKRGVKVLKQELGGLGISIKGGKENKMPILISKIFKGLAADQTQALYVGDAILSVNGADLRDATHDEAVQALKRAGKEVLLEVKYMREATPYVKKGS

T9: GRIP1_4, Q9Y3R0
T9 sequence (Q9Y3R0 467-571, limits assumed, looked up): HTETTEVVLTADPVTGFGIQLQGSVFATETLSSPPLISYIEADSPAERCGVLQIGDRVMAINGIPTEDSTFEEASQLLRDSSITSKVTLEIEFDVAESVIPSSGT

T10: TIAM2, Q8IVF5
T10 sequence (Q8IVF5 885-986, limits assumed, looked up): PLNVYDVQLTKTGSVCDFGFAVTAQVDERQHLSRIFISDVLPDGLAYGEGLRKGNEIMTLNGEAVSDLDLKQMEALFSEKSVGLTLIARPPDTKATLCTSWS

T11: DFNB31_3, Q9P202
T11 sequence (Q9P202 811-907, limits assumed, looked up): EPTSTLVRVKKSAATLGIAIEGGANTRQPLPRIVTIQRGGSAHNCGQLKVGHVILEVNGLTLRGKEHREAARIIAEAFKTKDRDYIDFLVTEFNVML


Target: T1, HTRA3, P83110
Experiment: holdup assay
Design: key: below the threshold = too weak to quantify, mostly under pKd 3.1 to 4
Conditions: plain residues with an end cap or a label only (N-terminal biotin on a linker: ahx)

Binder	pKd
QDEKVKESYV [ABCA1, O95477]	3.55

Target: GRIP2_6, Q9C0E4
Experiment: holdup assay
Design: key: below the threshold = too weak to quantify, mostly under pKd 3.1 to 4
Conditions: plain residues with an end cap or a label only (N-terminal biotin on a linker: ahx)

GRIP2_6, Q9C0E4, sequence (Q9C0E4 648-740): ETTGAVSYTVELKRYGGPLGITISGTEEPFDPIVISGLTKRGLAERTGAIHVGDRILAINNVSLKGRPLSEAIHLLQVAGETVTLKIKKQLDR

Binder	pKd
QDEKVKESYV [ABCA1, O95477]	below the threshold

Target: T2, LRRC7, Q96NW7
Experiment: holdup assay
Design: key: below the threshold = too weak to quantify, mostly under pKd 3.1 to 4
Conditions: plain residues with an end cap or a label only (N-terminal biotin on a linker: ahx)

Binder	pKd
QDEKVKESYV [ABCA1, O95477]	4.13

Target: MAGI3_2, Q5TCQ9
Experiment: holdup assay
Design: key: below the threshold = too weak to quantify, mostly under pKd 3.1 to 4
Conditions: plain residues with an end cap or a label only (N-terminal biotin on a linker: ahx)

MAGI3_2, Q5TCQ9, sequence (Q5TCQ9 398-503): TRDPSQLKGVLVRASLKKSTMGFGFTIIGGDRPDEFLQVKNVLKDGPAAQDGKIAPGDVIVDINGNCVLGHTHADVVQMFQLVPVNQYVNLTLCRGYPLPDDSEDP

Binder	pKd
QDEKVKESYV [ABCA1, O95477]	5.14

Target: Inadl_10, Q8NI35
Experiment: holdup assay
Design: key: below the threshold = too weak to quantify, mostly under pKd 3.1 to 4
Conditions: plain residues with an end cap or a label only (N-terminal biotin on a linker: ahx)

Inadl_10, Q8NI35, sequence (Q8NI35 1673-1763): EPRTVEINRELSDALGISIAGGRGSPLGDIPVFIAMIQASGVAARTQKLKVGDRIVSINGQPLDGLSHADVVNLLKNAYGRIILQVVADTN

Binder	pKd
QDEKVKESYV [ABCA1, O95477]	below the threshold

Target: T3, NHERF3_3, Q5T2W1
Experiment: holdup assay
Design: key: below the threshold = too weak to quantify, mostly under pKd 3.1 to 4
Conditions: plain residues with an end cap or a label only (N-terminal biotin on a linker: ahx)

Binder	pKd
QDEKVKESYV [ABCA1, O95477]	3.51

Target: T4, SNTA1, Q13424
Experiment: holdup assay
Design: key: below the threshold = too weak to quantify, mostly under pKd 3.1 to 4
Conditions: plain residues with an end cap or a label only (N-terminal biotin on a linker: ahx)

Binder	pKd
QDEKVKESYV [ABCA1, O95477]	5.9

Target: T5, RHPN1, Q8TCX5
Experiment: holdup assay
Design: key: below the threshold = too weak to quantify, mostly under pKd 3.1 to 4
Conditions: plain residues with an end cap or a label only (N-terminal biotin on a linker: ahx)

Binder	pKd
QDEKVKESYV [ABCA1, O95477]	4.9

Target: T6, GRIP1_7, Q9Y3R0
Experiment: holdup assay
Design: key: below the threshold = too weak to quantify, mostly under pKd 3.1 to 4
Conditions: plain residues with an end cap or a label only (N-terminal biotin on a linker: ahx)

Binder	pKd
QDEKVKESYV [ABCA1, O95477]	3.49

Target: T7, CARD11, Q9BXL7
Experiment: holdup assay
Design: key: below the threshold = too weak to quantify, mostly under pKd 3.1 to 4
Conditions: plain residues with an end cap or a label only (N-terminal biotin on a linker: ahx)

Binder	pKd
QDEKVKESYV [ABCA1, O95477]	below the threshold

Target: DLG1_3, Q12959
Experiment: holdup assay
Design: key: below the threshold = too weak to quantify, mostly under pKd 3.1 to 4
Conditions: plain residues with an end cap or a label only (N-terminal biotin on a linker: ahx)

DLG1_3, Q12959, sequence (Q12959 457-571): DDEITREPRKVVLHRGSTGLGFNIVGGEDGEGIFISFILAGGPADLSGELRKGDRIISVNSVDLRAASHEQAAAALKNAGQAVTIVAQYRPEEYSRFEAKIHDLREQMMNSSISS

Binder	pKd
QDEKVKESYV [ABCA1, O95477]	3.76

Target: T8, SNTB1, Q13884
Experiment: holdup assay
Design: key: below the threshold = too weak to quantify, mostly under pKd 3.1 to 4
Conditions: plain residues with an end cap or a label only (N-terminal biotin on a linker: ahx)

Binder	pKd
QDEKVKESYV [ABCA1, O95477]	5.22

Target: GRASP, Q7Z6J2
Experiment: holdup assay
Design: key: below the threshold = too weak to quantify, mostly under pKd 3.1 to 4
Conditions: plain residues with an end cap or a label only (N-terminal biotin on a linker: ahx)

GRASP, Q7Z6J2, sequence (Q7Z6J2 96-193): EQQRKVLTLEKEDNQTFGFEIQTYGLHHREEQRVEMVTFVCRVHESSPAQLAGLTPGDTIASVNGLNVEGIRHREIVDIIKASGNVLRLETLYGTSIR

Binder	pKd
QDEKVKESYV [ABCA1, O95477]	3.57

Target: Inadl_6, Q8NI35
Experiment: holdup assay
Design: key: below the threshold = too weak to quantify, mostly under pKd 3.1 to 4
Conditions: plain residues with an end cap or a label only (N-terminal biotin on a linker: ahx)

Inadl_6, Q8NI35, sequence (Q8NI35 1058-1167): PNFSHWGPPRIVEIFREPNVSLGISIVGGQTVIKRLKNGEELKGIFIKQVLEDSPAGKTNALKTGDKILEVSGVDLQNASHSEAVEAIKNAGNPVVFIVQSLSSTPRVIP

Binder	pKd
QDEKVKESYV [ABCA1, O95477]	4.29

Target: IL16_3, Q14005
Experiment: holdup assay
Design: key: below the threshold = too weak to quantify, mostly under pKd 3.1 to 4
Conditions: plain residues with an end cap or a label only (N-terminal biotin on a linker: ahx)

IL16_3, Q14005, sequence (Q14005 1107-1207): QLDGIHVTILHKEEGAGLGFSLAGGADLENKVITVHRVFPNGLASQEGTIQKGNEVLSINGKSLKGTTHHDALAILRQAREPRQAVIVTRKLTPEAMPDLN

Binder	pKd
QDEKVKESYV [ABCA1, O95477]	below the threshold

Target: GOPC, Q9HD26
Experiment: holdup assay
Design: key: below the threshold = too weak to quantify, mostly under pKd 3.1 to 4
Conditions: plain residues with an end cap or a label only (N-terminal biotin on a linker: ahx)

Binder	pKd
QDEKVKESYV [ABCA1, O95477]	4.28

Target: Inadl_2, Q8NI35
Experiment: holdup assay
Design: key: below the threshold = too weak to quantify, mostly under pKd 3.1 to 4
Conditions: plain residues with an end cap or a label only (N-terminal biotin on a linker: ahx)

Inadl_2, Q8NI35, sequence (Q8NI35 238-335): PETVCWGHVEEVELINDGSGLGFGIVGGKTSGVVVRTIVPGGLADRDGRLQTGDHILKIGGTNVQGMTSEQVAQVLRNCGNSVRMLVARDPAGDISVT

Binder	pKd
QDEKVKESYV [ABCA1, O95477]	3.93

Target: FRMPD2_3, Q68DX3
Experiment: holdup assay
Design: key: below the threshold = too weak to quantify, mostly under pKd 3.1 to 4
Conditions: plain residues with an end cap or a label only (N-terminal biotin on a linker: ahx)

FRMPD2_3, Q68DX3, sequence (Q68DX3 1073-1166): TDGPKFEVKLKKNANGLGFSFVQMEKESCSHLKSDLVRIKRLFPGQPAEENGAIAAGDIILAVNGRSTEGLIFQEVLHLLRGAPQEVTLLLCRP

Binder	pKd
QDEKVKESYV [ABCA1, O95477]	3.9

Target: GORASP1, Q9BQQ3
Experiment: holdup assay
Design: key: below the threshold = too weak to quantify, mostly under pKd 3.1 to 4
Conditions: plain residues with an end cap or a label only (N-terminal biotin on a linker: ahx)

GORASP1, Q9BQQ3, sequence (Q9BQQ3 1-208): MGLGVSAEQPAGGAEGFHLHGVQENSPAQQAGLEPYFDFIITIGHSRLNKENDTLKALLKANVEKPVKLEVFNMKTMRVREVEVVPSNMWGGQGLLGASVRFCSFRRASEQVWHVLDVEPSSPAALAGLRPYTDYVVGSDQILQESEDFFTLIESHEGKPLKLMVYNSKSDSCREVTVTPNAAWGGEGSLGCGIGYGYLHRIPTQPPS

Binder	pKd
QDEKVKESYV [ABCA1, O95477]	3.66

Target: T9, GRIP1_4, Q9Y3R0
Experiment: holdup assay
Design: key: below the threshold = too weak to quantify, mostly under pKd 3.1 to 4
Conditions: plain residues with an end cap or a label only (N-terminal biotin on a linker: ahx)

Binder	pKd
QDEKVKESYV [ABCA1, O95477]	below the threshold

Target: SNX27, Q96L92
Experiment: holdup assay
Design: key: below the threshold = too weak to quantify, mostly under pKd 3.1 to 4
Conditions: plain residues with an end cap or a label only (N-terminal biotin on a linker: ahx)

Binder	pKd
QDEKVKESYV [ABCA1, O95477]	5.63

Target: GRIP2_4, Q9C0E4
Experiment: holdup assay
Design: key: below the threshold = too weak to quantify, mostly under pKd 3.1 to 4
Conditions: plain residues with an end cap or a label only (N-terminal biotin on a linker: ahx)

GRIP2_4, Q9C0E4, sequence (Q9C0E4 446-548): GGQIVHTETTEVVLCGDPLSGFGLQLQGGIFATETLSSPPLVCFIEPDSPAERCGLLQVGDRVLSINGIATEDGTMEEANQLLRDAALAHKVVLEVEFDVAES

Binder	pKd
QDEKVKESYV [ABCA1, O95477]	below the threshold

Target: SCRIB_1, Q14160
Experiment: holdup assay
Design: key: below the threshold = too weak to quantify, mostly under pKd 3.1 to 4
Conditions: plain residues with an end cap or a label only (N-terminal biotin on a linker: ahx)

SCRIB_1, Q14160, sequence (Q14160 718-814): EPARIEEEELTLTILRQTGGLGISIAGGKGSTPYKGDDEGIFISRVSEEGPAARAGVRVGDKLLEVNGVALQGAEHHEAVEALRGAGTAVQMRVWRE

Binder	pKd
QDEKVKESYV [ABCA1, O95477]	4.15

Target: T10, TIAM2, Q8IVF5
Experiment: holdup assay
Design: key: below the threshold = too weak to quantify, mostly under pKd 3.1 to 4
Conditions: plain residues with an end cap or a label only (N-terminal biotin on a linker: ahx)

Binder	pKd
QDEKVKESYV [ABCA1, O95477]	below the threshold

Target: T11, DFNB31_3, Q9P202
Experiment: holdup assay
Design: key: below the threshold = too weak to quantify, mostly under pKd 3.1 to 4
Conditions: plain residues with an end cap or a label only (N-terminal biotin on a linker: ahx)

Binder	pKd
QDEKVKESYV [ABCA1, O95477]	below the threshold

Target: DLG2_3, Q15700
Experiment: holdup assay
Design: key: below the threshold = too weak to quantify, mostly under pKd 3.1 to 4
Conditions: plain residues with an end cap or a label only (N-terminal biotin on a linker: ahx)

Binder	pKd
QDEKVKESYV [ABCA1, O95477]	4.63
